From paper PMC8034618 come the findings set out here.

By Kd is commonly meant the equilibrium constant for the complex coming apart. Read a high Kd as weaker binding.

The series concerns LARP1 C-terminal fragment (extended DM15) WT (Homo sapiens). Put plainly: EMSA. As to conditions: m7Gppp cap; EMSA: 20 mM Tris-HCl pH 8, 150 mM NaCl, 10% glycerol, 1 mM DTT, 0.5 ug tRNA, 1 ug BSA in 10 ul; on ice 30 min; 7-8% native 0.5x TBE gel at 4 C; RNA <=200 pM.

The substance m7G-RPS6-UTR (capped RPS6 20-mer) showed a Kd of 153 nM.
